Source: PMC5876120 (2019)

B1: Caspr2 ECD (protein)
chain: APSTSQKCDEPLVSGLPHVAFSSSSSISGSYSPGYAKINKRGGAGGWSPSDSDHYQWLQVDFGNRKQISAIATQGRYSSSDWVTQYRMLYSDTGRNWKPYHQDGNIWAFPGNINSDGVVRHELQHPIIARYVRIVPLDWNGEGRIGLRIEVYGCSYWADVINFDGHVVLPYRFRNKKMKTLKDVIALNFKTSESEGVILHGEGQQGDYITLELKKAKLVLSLNLGSNQLGPIYGHTSVMTGSLLDDHHWHSVVIERQGRSINLTLDRSMQHFRTNGEFDYLDLDYEITFGGIPFSGKPSSSSRKNFKGCMESINYNGVNITDLARRKKLEPSNVGNLSFSCVEPYTVPVFFNATSYLEVPGRLNQDLFSVSFQFRTWNPNGLLVFSHFADNLGNVEIDLTESKVGVHINITQTKMSQIDISSGSGLNDGQWHEVRFLAKENFAILTIDGDEASAVRTNSPLQVKTGEKYFFGGFLNQMNNSSHSVLQPSFQGCMQLIQVDDQLVNLYEVAQRKPGSFANVSIDMCAIIDRCVPNHCEHGGKCSQTWDSFKCTCDETGYSGATCHNSIYEPSCEAYKHLGQTSNYYWIDPDGSGPLGPLKVYCNMTEDKVWTIVSHDLQMQTPVVGYNPEKYSVTQLVYSASMDQISAITDSAEYCEQYVSYFCKMSRLLNTPDGSPYTWWVGKANEKHYYWGGSGPGIQKCACGIERNCTDPKYYCNCDADYKQWRKDAGFLSYKDHLPVSQVVVGDTDRQGSEAKLSVGPLRCQGDRNYWNAASFPNPSSYLHFSTFQGETSADISFYFKTLTPWGVFLENMGKEDFIKLELKSATEVSFSFDVGNGPVEIVVRSPTPLNDDQWHRVTAERNVKQASLQVDRLPQQIRKAPTEGHTRLELYSQLFVGGAGGQQGFLGCIRSLRMNGVTLDLEERAKVTSGFISGCSGHCTSYGTNCENGGKCLERYHGYSCDCSNTAYDGTFCNKDVGAFFEEGMWLRYNFQAPATNARDSSSRVDNAPDQQNSHPDLAQEEIRFSFSTTKAPCILLYISSFTTDFLAVLVKPTGSLQIRYNLGGTREPYNIDVDHRNMANGQPHSVNITRHEKTIFLKLDHYPSVSYHLPSSSDTLFNSPKSLFLGKVIETGKIDQEIHKYNTPGFTGCLSRVQFNQIAPLKAALRQTNASAHVHIQGELVESNCGASPLTLSPMSSATDPWHLDHLDSASADFPYNPGQGQAIRNGVNRNSA
B2: contactin-2 ECD (protein)
chain: SQTTFGPVFEDQPLSVLFPEESTEEQVLLACRARASPPATYRWKMNGTEMKLEPGSRHQLVGGNLVIMNPTKAQDAGVYQCLASNPVGTVVSREAILRFGFLQEFSKEERDPVKAHEGWGVMLPCNPPAHYPGLSYRWLLNEFPNFIPTDGRHFVSQTTGNLYIARTNASDLGNYSCLATSHMDFSTKSVFSKFAQLNLAAEDTRLFAPSIKARFPAETYALVGQQVTLECFAFGNPVPRIKWRKVDGSLSPQWTTAEPTLQIPSVSFEDEGTYECEAENSKGRDTVQGRIIVQAQPEWLKVISDTEADIGSNLRWGCAAAGKPRPTVRWLRNGEPLASQNRVEVLAGDLRFSKLSLEDSGMYQCVAENKHGTIYASAELAVQALAPDFRLNPVRRLIPAARGGEILIPCQPRAAPKAVVLWSKGTEILVNSSRVTVTPDGTLIIRNISRSDEGKYTCFAENFMGKANSTGILSVRDATKITLAPSSADINLGDNLTLQCHASHDPTMDLTFTWTLDDFPIDFDKPGGHYRRTNVKETIGDLTILNAQLRHGGKYTCMAQTVVDSASKEATVLVRGPPGPPGGVVVRDIGDTTIQLSWSRGFDNHSPIAKYTLQARTPPAGKWKQVRTNPANIEGNAETAQVLGLTPWMDYEFRVIASNILGTGEPSGPSSKIRTREAAPSVAPSGLSGGGGAPGELIVNWTPMSREYQNGDGFGYLLSFRRQGSTHWQTARVPGADAQYFVYSNESVRPYTPFEVKIRSYNRRGDGPESLTALVYSAEEEPRVAPTKVWAKGVSSSEMNVTWEPVQQDMNGILLGYEIRYWKAGDKEAAADRVRTAGLDTSARVSGLHPNTKYHVTVRAYNRAGTGPASPSANATTMKPPPRRPPGNISWTFSSSSLSIKWDPVVPFRNESAVTGYKMLYQNDLHLTPTLHLTGKNWIEIPVPEDIGHALVQIRTTGPGGDGIPAEVHIVRNGGTSMMVEN

Experiments:
contactin-2 ECD = target: B2; experiment: solid phase binding assay
Caspr2 ECD = target: B1; experiment: solid phase binding assay

Kd (contactin-2 ECD) | Kd (Caspr2 ECD) | Binder
12 nM | – | B1
– | 15 nM | B2
